Experimental data published in the RNAGym collection of RNA variant scans (doi:10.1073/pnas.2313332121).
Variants at the floor of the assay were thinned out.

B1: TPR 5TU (parent)
chain: GGAUCUUCUCGAUCUAACAAAAAAGACAAAUCUGCCACAAAGCUUGAGAGCAUCUUCGGAUGCAGAGGCGGCAGCCUUCGGUGGCGCGAUAGCGCCAACGUUCUCAACUAUGACACGCAAAACGCGUGCUCCGUUGAAUGGAGUUUAUCAUG

Variants of: B1
Assay: polymerase ribozyme fitness, log enrichment relative to wild type (log ratio); higher = more active; in vitro selection for triplet polymerase activity
In short: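 Mutant libraries of both subunits of a heterodimeric triplet polymerase ribozyme were PCR-built, transcribed, and selected once in triplicate, with frozen incubation at −7 °C and capture of gel-excised extended constructs on streptavidin beads before RT-PCR. Illumina sequencing of input and output libraries was filtered to genotypes with ≥10 input reads and ≥1 read per output. Fitness is the logarithm of genotype enrichment over wild-type enrichment, using inverse-variance-weighted replicate averages. The logarithm is base 2.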

Variant	polymerase ribozyme fitness (log ratio)
A20G C54G C96U	-2
A19U C96G A122U	-0.445
A20C A22U G58A U77C C96G	≤ -4.2
A20G A22U G70U C85G A110U A121C	≤ -4.2
A20U A47G G50U C85G	-3.77
A20U A30U A37U C51G C93U C95A C96G C116G	≤ -4.2
A20C C76G	≤ -4.2
A19U C76U C131U	0.231
A20U A52C C54U G88U A107U C116A	≤ -4.2
A20C U130G U144C	-4.14
A20G G58A G81C A142C	-1.55
A20G A29U C51G C87G	≤ -4.2
A20G C54U A60U C85A	-3.42
A20G A24U U111A A142U G143U	≤ -4.2
A19U C38U A49C G58C C79U G88A A97C	≤ -4.2
A19U G58A G94U C116A A119C	-0.758
A19U C75U G81C C99G A119G G140U	≤ -4.2
A20G A30U G83A A110C U148C	≤ -4.2
A20C G86A	-2.24
A20G A40U U77C	≤ -4.2
A20G A52U C57A G62U C95A G133C A150U	-1.8
A20G G50C C54G C76A C87G U90G C95U	≤ -4.2
A20C U61G G112C	≤ -4.2
A20C A49U A60C	-3.14

Variant	polymerase ribozyme fitness (log ratio)
A20C C76A A119U	-1
A19U C96G C114U	-2.99
A19U U53G C93G	≤ -4.2
A20U A29G G48C A49C G117A U134G A137C U139A	≤ -4.2
A20C G65U U90G C93U C129A	≤ -4.2
A19U U45A G83C	-3.67
A20G G59C G70A	-4.05
A19U G48A C116G U127G	≤ -4.2
A20C G48U G83U	-2.07
A19U C69G C96G U104G	-1.98
A20G C27U C35U A49U C76U C125U	≤ -4.2
A20G A28G U90A C93A C95G A106U C123U	≤ -4.2
A20G A91G U146A	-3.96
A20G C95A A110G	-3.46
A20G U55A C96A U104G	-2.4
A20C A24G	-4.02
A20C A47C	-0.462
A20G C35G A49C A73G C87G	≤ -4.2
A19U A49C A52G A106G	≤ -4.2
A20U A30C A41G G74U C93U	≤ -4.2
A20G G59A U77A C95U G117U C118G A122U	≤ -4.2
A19U G48A	-1.05
A19U G48U	-0.613
A19U C85G G92U C123U	-2.54

Variant	polymerase ribozyme fitness (log ratio)
A20C G48C G62A	-2.35
A20G G70C C75U C93A C95U U109C	≤ -4.2
A20G C125A	-0.707
A20C A30G G50U C95G A147G	≤ -4.2
A19U C57G	-1.75
A20G A91U	≤ -4.2
A20C C118U	-0.906
A20C U31G A40U	-0.279
A20G A21C G84U C95G G117U	-0.439
A20G A39G G50C C85A C93A C114G C125G	≤ -4.2
A20U A40U C69A	-2.77
A20U A47C	-0.824
A20C A49G	-0.512
A19U G59A G83U U139G	-1.28
A20U A29U C43U A47G A49C C54G C95U C105A U145G A147G	≤ -4.2
A20U A24G A29C C38G G80C A89G C105U C116G	≤ -4.2
A20C G92A U101G G124A C129U	-3.24
A19U C63U C96U C105G C116A	-2.98
A20C C85A G126C U144A	-0.594
A20U A52C	-2.87
A20C C85U A115U	-1.06
A19U C87U A121C A147U	0.743
A20U A23G G50U G86A A110C C129G G140A	≤ -4.2
A20G A73G C85A	-2.05

Variant	polymerase ribozyme fitness (log ratio)
A20U A40C U55A A73U	-3.94
A20U A47U A89U C96U G128U	≤ -4.2
A20C A39C C79G A106G G124U	≤ -4.2
A20G A24G A40C A49C C85A	≤ -4.2
A19U G81C C85U U145A	-0.303
A19U G50U G58C C75U C118G A120G G141A U146A	≤ -4.2
A20C U82A A150G	-0.662
A20C A23U A29U G92A A110U U139G A142G U144G	≤ -4.2
A20G G25A A49G C54U C76U G84A A122U U145G	≤ -4.2
A19U C32A G84A G128U C131U A137G	-3.73
A19U C57U C103G A119G C123A	-3.45
A19U C79A	≤ -4.2
A20C C63G G152A	-2.4
A19U G84C	-2.08
A20C G34A A47G U104G U130G A150G	≤ -4.2
A19U A106G G143C	-2.4
A19U A89U G136U	-3.55
A20U A23G G88A C99G C149G	≤ -4.2
A20C A47U C51U C105U U144A	-2.59
A20G U31G G86A	-1.52
A20C C54U C95U G140U	-3.23
A20U A41U G83U A89C C96G A150U	-2.06
A19U U44G G50C A73G C76A G140A	≤ -4.2
A20G A107G C116G A122G G124A G128C	≤ -4.2

Variant	polymerase ribozyme fitness (log ratio)
A19U U55A G59U	0.528
A20U A23C C35G G84A C125U	≤ -4.2
A19U C43G C54G A91G	≤ -4.2
A20U A23C C79U G94C C95U U148A	≤ -4.2
A19U C51G G59C C75G G88A A91U C96U G141C	≤ -4.2
A20G A23C U144G	≤ -4.2
A19U C69G C85U U134G G152U	≤ -4.2
A20C U104G A107C U145G	≤ -4.2
A20G A142C	-1.06
A20G A22U G141A	-1.8
A20U A23C A47C U55G G86U A91G	≤ -4.2
A19U G46U A89C	-2.83
A19U U31C C51U	0.159
A20G C27A A47G G92A	≤ -4.2
A20U A40U U56A C96A G141C	-2.73
A20C G42C G50U G84A C99A	≤ -4.2
A20G A26U A39C G86C A150C	≤ -4.2
A20U A23U A24U C51U A60G C85G	≤ -4.2
A20C A22U C51U	-0.386
A19U G86A	-2.04
A19U G86C	-2.58
A19U G50U C51A C96U A119G	-3.91
A20G A21U A26U A29U A39C A91G G94U A97G C99A C131A A142G	≤ -4.2
A20C C85A A97U	-3.02

Variant	polymerase ribozyme fitness (log ratio)
A20G G34A C118G A121C	-3.83
A20G C27G G65U G81A G88A A138C G143U	≤ -4.2
A20U A37C A52G G124U	-2.09
A19U C27A A91U G94U G126U G141A G143C	≤ -4.2
A20C U53A C54A G59A G84A G124C	-2.39
A20C G68C G141C	≤ -4.2
A20C G83C C118G U130G	≤ -4.2
A19U A52U A97G	-2.59
A19U C57G C95U C103G U104G	≤ -4.2
A19U G50A G71A A89G A137G	≤ -4.2
A20G C57A C69A C76U C96U	-1.94
A19U G48C C75U U77C C93G A122U A150C	≤ -4.2
A20C A40G A52G C85A A98G	-4.01
A20C A52U C93U C95A C96A U109A C125U	≤ -4.2
A20C C63U A64C	≤ -4.2
A19U G58A C105G	-2.43
A20G C38U A47C A60G C93U A106G G128U	≤ -4.2
A20C A60C C85A	-2.66
A20U A52G G58A C76G G81A G86A A122C	≤ -4.2
A19U C95U	-0.543
A19U U31G U144C	-1.49
A19U C38A C54U C85A C108A	≤ -4.2
A19U C85A A113U	-3.44
A20U A39C G48A G94A	≤ -4.2

Variant	polymerase ribozyme fitness (log ratio)
A20C C36A A49U U56G A91U U146C	≤ -4.2
A20C A26C G128U U144G	≤ -4.2
A19U U61A G86U A107G A115U G152U	≤ -4.2
A19U C105G	-1.81
A20C C85U A89G A106G	-2.07
A20C C79A G94C	≤ -4.2
A20C G62A G86U	-2.06
A20G A28U G42C A49C C93G C103A	≤ -4.2
A20C A73G C87G C114U G141A	≤ -4.2
A19U C87G	-4.17
A20C U144G	0.273
A20C C57G C105G C149A	≤ -4.2
A19U G141A	0.304
A20C U127G G133C U134C A137C A138G G140A	≤ -4.2
A20G C57U G62C G136U	-3.44
A20G C57G A66C G94A C132U	≤ -4.2
A20G U56G G117C	-0.934
A20G G34C C38A C76U U90C C114U	≤ -4.2
A20C C35U A97G	-0.284
A20U A29G A91C C93A G128U	≤ -4.2
A20G A40C C72U G92A	-4.04
A20C G83U A89U A97U	-2.13
A20G A22C C93A	-3.38
